The target in assay [1] is T1, 可溶性ヒトVEGF受容体KDR 7N (human, UniProt P35968 20-757).
T1 construct: range 1-738; The range 1-738 counts on the mature protein (after the 19-residue signal peptide)
Briefly: ELISA, coated antigen 4 ug/ml.

In a further assay the target is T2, 可溶性ヒトVEGF受容体Flt-1 7N (human, UniProt P17948 27-750).
T2 construct: range 1-750; also called 可溶性ヒトFlt-1 7N
Briefly: inhibition of 125I-VEGF binding to coated Flt-1 7N, purified antibody.

The target of another assay is T3, ヒトVEGF受容体Flt-1(細胞表面発現) (human, UniProt P17948 27-1338).
T3 construct: whole, on cells; also called NIH3T3-Flt-1細胞; ヒトVEGF受容体Flt-1発現NIH3T3細胞
Put plainly: inhibition of 125I-VEGF binding to NIH3T3-Flt-1 cells, purified antibody.

Assay [2] has as its target T1, 可溶性ヒトVEGF受容体KDR 7N. Put plainly: ELISA, coated antigen 4 ug/ml, antibody titrated.
Assay [3] addresses T1, 可溶性ヒトVEGF受容体KDR 7N. Briefly: ELISA, coated antigen from 10 ug/ml in 3-fold dilutions.

T1 sequence (P35968 20-757): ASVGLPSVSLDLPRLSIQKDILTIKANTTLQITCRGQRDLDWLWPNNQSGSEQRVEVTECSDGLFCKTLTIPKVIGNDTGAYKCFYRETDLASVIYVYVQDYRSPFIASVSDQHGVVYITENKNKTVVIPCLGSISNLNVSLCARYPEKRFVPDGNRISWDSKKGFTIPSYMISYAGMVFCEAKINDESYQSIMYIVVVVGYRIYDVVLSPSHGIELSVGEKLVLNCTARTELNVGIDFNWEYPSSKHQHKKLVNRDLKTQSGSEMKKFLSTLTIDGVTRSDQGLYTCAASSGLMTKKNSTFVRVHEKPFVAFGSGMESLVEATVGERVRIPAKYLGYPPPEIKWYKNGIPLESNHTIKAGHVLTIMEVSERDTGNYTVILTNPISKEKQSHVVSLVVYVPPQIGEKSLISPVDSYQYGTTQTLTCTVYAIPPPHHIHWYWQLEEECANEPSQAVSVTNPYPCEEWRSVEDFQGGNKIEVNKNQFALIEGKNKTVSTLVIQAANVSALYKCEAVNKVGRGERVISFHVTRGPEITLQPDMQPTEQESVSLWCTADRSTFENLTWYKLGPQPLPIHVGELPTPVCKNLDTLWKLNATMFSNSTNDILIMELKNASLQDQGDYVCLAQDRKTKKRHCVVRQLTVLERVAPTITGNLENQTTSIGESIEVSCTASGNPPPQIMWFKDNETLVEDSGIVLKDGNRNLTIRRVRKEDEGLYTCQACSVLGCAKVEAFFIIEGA

B1: 抗ヒトVEGF受容体Flt-1マウスモノクローナル抗体KM1732 (antibody, V domains shown)
VH: QGQMQQSGAELVKPGASVKLSCKPSGFTFSSNYISWLKQKPGQSLEWIAWIYAGTGDASYNQKFTAKAHVTVDTSSSTAYMQLSSLTTEDSAIYYCARHGGDGYWFAYWGQGTLVTVSA
VL: QLVLTQSPAIMSASQGEKVTMTCSASSSVSYMHWYQQKSGTSPKRWIYDTSKLPSGVPARFSGSGSGTSYSLTISSMEAEDAATYYCQQWSSNPPTFGAGTKLELK
notes: Mouse hybridoma IgG (Balb/c mouse immunised with Flt-1 7N, screened on Flt-1 3N); cDNAs were cloned with mouse Cgamma1 and Ckappa probes; also called FERM BP-5698
As for B1, the binding result with 可溶性ヒトVEGF受容体KDR 7N [1] is reported as “no binding (tested: 0.1μg/ml)”. In addition, the IC50 (in general, the point on the concentration scale where inhibition reaches its midpoint) in the assay with 可溶性ヒトVEGF受容体Flt-1 7N stood at 1.1 µg/mL; in the assay with ヒトVEGF受容体Flt-1(細胞表面発現), 0.05 µg/mL.

B2: 抗ヒトVEGF受容体Flt-1ヒト型キメラ抗体KM2532 (antibody, V domains shown)
VH: QGQMQQSGAELVKPGASVKLSCKPSGFTFSSNYISWLKQKPGQSLEWIAWIYAGTGDASYNQKFTAKAHVTVDTSSSTAYMQLSSLTTEDSAIYYCARHGGDGYWFAYWGQGTLVTVSA
VL: QLVLTQSPAIMSASQGEKVTMTCSASSSVSYMHWYQQKSGTSPKRWIYDTSKLPSGVPARFSGSGSGTSYSLTISSMEAEDAATYYCQQWSSNPPTFGAGTKLELK
notes: Expressed in YB2/0 cells; also called pKANTEX1732
On to B2, for which the binding result with 可溶性ヒトVEGF受容体KDR 7N [2] was “no binding (tested: 0.0152〜100ng/ml)”.

B3: 抗ヒトVEGF受容体Flt-1ヒト型CDR移植抗体KM8550 (antibody, V domains shown)
VH: QVQLVQSGAEVKKPGASVKVSCKASGYTFINYNMHWVRQAPGQGLEWMGAIFPGNGFTSYNQKFKGRVTITVDKSTSTAYMELSSLRSEDTAVYYCARDGDYYFDYWGQGTLVTVSS
VL: DIQMTQSPSSLSASVGDRVTITCSASSSVSYMHWYQQKPGKAPKLLIYRTSNLASGVPSRFSGSGSGTDFTLTISSLQPEDFATYYCHQWSMYTFGQGTKVEIK
notes: CDR-grafted IgG derived from KM1750; also called pKANTEX1750HV0LV0(I); 1750HV0 + 1750LV0(I)
As to B3, the binding result in the assay with 可溶性ヒトVEGF受容体KDR 7N [3] is listed as “no binding (tested: 5μg/ml)”.

B4: 抗ヒトVEGF受容体Flt-1ヒト型CDR移植抗体KM8551 (antibody, V domains shown)
VH: QVQLVQSGAEVKKPGASVKVSCKASGYTFINYNMHWVRQAPGQGLEWMGAIFPGNGFTSYNQKFKGRVTITVDKSTSTAYMELSSLRSEDTAVYYCARDGDYYFDYWGQGTLVTVSS
VL: DIVMTQSPDSLAVSLGERATINCSASSSVSYMHWYQQKPGQPPKLLIYRTSNLASGVPDRFSGSGSGTDFTLTISSLQAEDVAVYYCHQWSMYTFGQGTKVEIK
notes: CDR-grafted IgG derived from KM1750; also called pKANTEX1750HV0LV0(IV); 1750HV0 + 1750LV0(IV)
B4: the binding result with 可溶性ヒトVEGF受容体KDR 7N [3] was “no binding (tested: 5μg/ml)”.

B5: 抗ヒトVEGF受容体Flt-1ヒト型CDR移植抗体KM8553 (antibody, V domains shown)
VH: QVQLVQSGAEVKKPGASVKVSCKASGYTFINYNMHWVRQAPGQGLEWMGAIFPGNGFTSYNQKFKGRVTITVDKSTSTAYMQLRSLRSEDTAVYFCARDGDYYFDYWGQGTLVTVSS
VL: DIVMTQSPDSLAVSLGERATINCSASSSVSYMHWYQQKPGQPPKLLIYRTSNLASGVPDRFSGSGSGTDFTLTISSLQAEDVAVYYCHQWSMYTFGQGTKVEIK
notes: CDR-grafted IgG derived from KM1750 with modified VH framework; also called pKANTEX1750HV3LV0(IV); 1750HV3 + 1750LV0(IV)
B5: the binding result with 可溶性ヒトVEGF受容体KDR 7N [3] was “no binding (tested: 5μg/ml)”.

B6: 抗ヒトVEGF受容体Flt-1ヒト型CDR移植抗体KM8555 (antibody, V domains shown)
VH: QVQLVQSGAEVKKPGASVKVSCKASGYTFINYNMHWVRQAPGQGLEWMGAIFPGNGFTSYNQKFKGRVTITVDKSTSTAYMQLRSLRSEDTAVYFCARDGDYYFDYWGQGTLVTVSS
VL: DIQMTQSPSSLSASVGEEVTITCSASSSVSYMHWYQQKPGKAPKLLIYRTSNLASGVPSRFSGSGSGTFYTLTISSLQPEDFATYYCHQWSMYTFGQGTKVEIK
notes: CDR-grafted IgG derived from KM1750 with modified VH and VL frameworks; also called pKANTEX1750HV3LV4; 1750HV3 + 1750LV4
Regarding B6, the binding result with 可溶性ヒトVEGF受容体KDR 7N [3] was “no binding (tested: 5μg/ml)”.

B7: 抗ヒトVEGF受容体Flt-1ヒト型CDR移植抗体KM8554 (antibody, V domains shown)
VH: QVQLVQSGAEVKKPGASVKVSCKASGYTFINYNMHWVRQAPGQGLEWMGAIFPGNGFTSYNQKFKGRVTITVDKSTSTAYMELSSLRSEDTAVYYCARDGDYYFDYWGQGTLVTVSS
VL: DIQMTQSPSSLSASVGEEVTITCSASSSVSYMHWYQQKPGKAPKLLIYRTSNLASGVPSRFSGSGSGTFYTLTISSLQPEDFATYYCHQWSMYTFGQGTKVEIK
notes: CDR-grafted IgG derived from KM1750 with modified VL framework; also called pKANTEX1750HV0LV4; 1750HV0 + 1750LV4
Regarding B7, the binding result with 可溶性ヒトVEGF受容体KDR 7N [3] was “no binding (tested: 5μg/ml)”.

B8: 抗ヒトVEGF受容体Flt-1ヒト型CDR移植抗体KM8552 (antibody, V domains shown)
VH: QVQLVQSGAEVKKPGASVKVSCKASGYTFINYNMHWVRQAPGQGLEWMGAIFPGNGFTSYNQKFKGRVTITVDKSTSTAYMQLRSLRSEDTAVYFCARDGDYYFDYWGQGTLVTVSS
VL: DIQMTQSPSSLSASVGDRVTITCSASSSVSYMHWYQQKPGKAPKLLIYRTSNLASGVPSRFSGSGSGTDFTLTISSLQPEDFATYYCHQWSMYTFGQGTKVEIK
notes: CDR-grafted IgG derived from KM1750 with modified VH framework; also called pKANTEX1750HV3LV0(I); 1750HV3 + 1750LV0(I)
B8: the binding result in the assay with 可溶性ヒトVEGF受容体KDR 7N [3] was “no binding (tested: 5μg/ml)”.

B9: 抗ヒトVEGF受容体Flt-1マウスモノクローナル抗体KM1750 (antibody, V domains shown)
VH: QAFLQQSGAELVRPGASVKMSCKASGYTFINYNMHWVKQTPRQGLEWIGAIFPGNGFTSYNQKFKGKATLTVDKSSSTVYMQLRSLTSEDSAVYFCARDGDYYFDYWGQGTTLTVSS
VL: QIVLTQSPAIMSASLGEEITLTCSASSSVSYMHWYQQKSGTSPKLLIYRTSNLASGVPFRFSGSGSGTFYSLTISSVEAEDAADYYCHQWSMYTFGGGTKLEIK
notes: cDNAs were cloned with mouse Cgamma1 and Ckappa probes; also called FERM BP-5700
For the molecule B9, the binding result with 可溶性ヒトVEGF受容体KDR 7N [1] was “no binding (tested: 0.1μg/ml)”. For the same molecule, the half-inhibitory concentration (IC50) came out at 2 µg/mL with 可溶性ヒトVEGF受容体Flt-1 7N and 0.041 µg/mL in the assay with ヒトVEGF受容体Flt-1(細胞表面発現).

B10: 抗ヒトVEGF受容体Flt-1ヒト型キメラ抗体KM2550 (antibody, V domains shown)
VH: QAFLQQSGAELVRPGASVKMSCKASGYTFINYNMHWVKQTPRQGLEWIGAIFPGNGFTSYNQKFKGKATLTVDKSSSTVYMQLRSLTSEDSAVYFCARDGDYYFDYWGQGTTLTVSS
VL: QIVLTQSPAIMSASLGEEITLTCSASSSVSYMHWYQQKSGTSPKLLIYRTSNLASGVPFRFSGSGSGTFYSLTISSVEAEDAADYYCHQWSMYTFGGGTKLEIK
notes: Expressed in YB2/0 cells; also called pKANTEX1750
As for B10, the binding result with 可溶性ヒトVEGF受容体KDR 7N [2] is “no binding (tested: 0.0152〜100ng/ml)”.

The record behind these values is JP2005027671A (dated 2005).
